Source: the nanobody polyreactivity screen of Harvey et al. (2022)

Assay: yeast display, Sf9 membrane polyspecificity reagent, FACS + sequencing; frameworks hold sequencing errors
In short: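 Genes from sorted yeast were amplified by colony PCR, read by MiSeq 2 × 250 sequencing and filtered on CDR length. These cells carried a synthetic nanobody library in Saccharomyces cerevisiae BJ5465 and were sorted by FACS into low and high (top ~1%) gates on anti-HA and streptavidin fluorescence. Polyreactivity is labelled according to the gate of origin.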

| Sequence | polyreactivity (PSR sort gate) |
| --- | --- |
| QVQLVESGGGLVQAGGSLRLSCAASGSIFSANAMGWYRQAPGKERELVASITGDGSTNYADSVNGRFTISRDNAKNTVYLQMNSLKPEDTAVYYCAVDRGRRGMDYWGQGTQVTVSS | low polyreactivity |
| QVQLVESGGGLVQAGGSLRLSCAASGRTFWRYAMGWDRQAPGKERELVAGITNSGGNTYYADSVKGRFTISRDNAKNTVYLQMNSLKPEDTAVYYCAARSGRFKYSSWSRGPTYDYWGQGTQVTVSS | low polyreactivity |
| QVHLEESGGGLVQAGGSLRLSSAASGFTFRSNAMGWYRQAPGKERELVAAITSRGGSTYYADSVKGRFTISRDYAINTVYLQMNSLKPEDTAVYYGAADGRSRKFDYWGQGTQVTVSS | high polyreactivity |
| QVQLVESGGGLVQAGGSLRLSCAASGSILQRNAMGWYRQAPGKERELVAAISWSGDNTYYADSVKGRFTISRDNAKNTVYLQMNSLKPEDTAVYYCATDADIYFQEYDYWGQGTQVTVSS | low polyreactivity |
| QVQLVESGGGLVQAGGSLRFSCAASGRTFYRYAMGWYRQAPGKERVLVAAISGSGGSTYYADSVKGRFTISRDNAKNTVYLQMNSLKPEDTAVYYCAADGPSHHGDDDYWGQGTQVTVSS | low polyreactivity |
| QVQLVESGGGLVQAGGSLRLSCAASGIYINAMGWYRQAPGKERELVAAISRGGSTYYADSVKGRFTISRDNAKNTVYLQMNSLKPEDTAVYYCAKLIGRWRLYHTFVKGDYWGQGTQVTVSS | high polyreactivity |
| QVQLVESGGGLVQAGGSLRLSCAASGLTFYPYAMGWYRQAPGKERELVAAITRSGTSTFYADSVKGRFTISRDNAKNTVYLQMNSLKPEETAVYYCAKGYFFVGTDWESYYWGQGTQVTVSS | low polyreactivity |
| QVQLVESGGGLVQAGGSLRLSCAASGSIFSDYAMGWYRQAPGTERELVAAITEGGDSTYYADSVKGRFTISRDNAKNTVYLQMNSLKPEDTAVYSCAAEVYQLFTSPFDYWGQGTQVTVSS | low polyreactivity |
| QVQLVESGGGLVQAGRSLRLSCAASGITFKLYAMGWYRQAPGKERELVARLSLRGGNTYYADSVKVRFTISRDNAKTTVYLQMNSQNPEDTAVYYCNADLYRQYASRYHYWGQGSQVTVSS | high polyreactivity |
| QVQLVESGVGLVQAGGSLSLSCAASGSTFTRYAMGWYRQAPGKERELVASISRSGNTYYADSVKGRFTISRDNAKNTVYLQMNSLKPEDSAVYYCAAKRKSYYSYNFDYWGQGTQVTVSS | high polyreactivity |
| QVQLVESCGGLDQAGGSLRLSCAASALTFVDNAMGWYRQAPGKERELVAAISYNGGSTYYADSVKGRFTISRDNAKNTVYLQMNCLKPEDTAVYYCAADISVGRYGDMDYWGQGTLVTVSS | low polyreactivity |
| QVQLVESGGGLVQAGGSLRLSCAASGSIFGYYSMGWYRQAPGKERELVATITWGGGSTYADSVKGRFTISRDNAKNTVYLQMNSLKPEDTAVYYCNAGYRYTSAQVTWEYDYWGQGTQVTVSS | low polyreactivity |
| QVQLVESGVGLVQAGGSLRLSCAASGFIFYGYAMGWYRQAPGKERELVAGNSTGGSTNYADSVKGRFTISRENAKNTVYLQMNSMKPEDTAVYDGAVVDVEQHVGHWGQVTQVTVSS | low polyreactivity |
| QVQLVESVGGLVQAGGSLRLSSAASGSTFRGYALGWYRQSPGKERELVASISWSGGSTYYADSVKGRFTISRDNAKNTVYLQMNSLKQEDTAVYYCAARKRWRNIRMDYWGQGTQVTVSS | high polyreactivity |
| QVQLVESGGGLVQAGGSLRLSCAASGLILPDYAMGWYRQAPGKERELVAAISESAASTYYADSVKGRFTISRDNAKNTVYLQMNSLKPEDTAVYYCAAEVWCYSWYYWYYDGEYYWGQGTQVTVSS | high polyreactivity |
| QVQLVESGGGLVQAGGSLRLSCAPSGLTFKDYTMGWYRQAPGKERELVAAISKSGGRTYYADSVKGRFTISRDNAKNTVYLQMNSLKPEDTAVYYCNADSRTYRYYWSYGYWGQGTQVTVSS | high polyreactivity |

| Sequence | polyreactivity (PSR sort gate) |
| --- | --- |
| QVQLVESGAGLVQAGGSLRLSCAASGRTFRYSAMGWYRQAPGKERELVAAISSRGNTYYADSVKGRFTISRDNAKNTVYLQMNTLKPEDTAVYYCAAYVYRVQYDFDYWGQGTQVTVSS | high polyreactivity |
| QVQLVESGGGLVQAGGSLRLRCAASGRTFSHYAMGWYRQAAGKESELVATITRNGGITYYADSVKGRFTISRDNAKNTVYLQMNSLKPEDTAVYYCNKRWGGPIQFDYWGQGTQVTVSS | low polyreactivity |
| QVQLVESGGGLVQAGGSLRLSCASSGRTIYGSTKGWYRQAPGKESELGAAIRRSGGSTYYADSVKGRFTISRDNAKNTVYFQMNRLNPEDTAVYYCAASWRDIYRHYNVYPYDYWGQGTQVTVSS | low polyreactivity |
| QVQLVESGVGLDQAGGSLRLSCAASGGIIAINAMGWYSQAPGKERELVAAISWGDGMTYYADSVKGRFTISRDNAKNTVYLQMNSLKPDDSAVYYCAADADEYRGGDVSWGQGTQVTVSS | low polyreactivity |
| QLQLVESGGGLVQAGGSLRLSCAASGSIFGPYARGWYRQAPGKERELVAAITDGGGSTYYADSVKGRFTISRDNAKNTVYLQMNSLKPEETAVDYCAADHSSKSGPADTFYWFDYWGQGTQVTVSS | low polyreactivity |
| QVQLVESGGGLVQAGGSLRLSCAASGRILYPYAMGWYRQAPGKERELVASISWSGGRTYYADSVKGRFTISRDHAKYTVYLQMNSLKPEDTAVYYCAATFSYSSYIYDYWGQGTQVTVSS | high polyreactivity |
| QDQLVESGGGLVQAGGSLRLSCAAYGSILGGNAMGWYRPAPGKERELVAAITFSGGGTYYADSVKGRFTISRDNAKNTVYLQMNSMKPEDTAVYYCAADKDGYTYEFDYWGQGTQVTVSS | low polyreactivity |
| QVQLVESGGGLDQAGGSLRLSSAASGSIVDSNAMGWYRQAPGKASEMVASITSSGGSTYYADSVKGRFTISRDNAKNTVYLQMNSVKPEDTAVYYCAPKQAQSRYRLWSTSGYWGQGTQVTVSS | high polyreactivity |
| QVQVVESRGGLVQAGGRLRLSCAASGSTFGVNAMGWYRTAPGKERELVAAISYTGGSTYYADSVKGRFTISRDNAKNTVYLQMNSLKAEHTAVSYCAVEVGYTDSPYSYDYWGQGTQVTVSS | low polyreactivity |
| QVQLVESGGGLVQAGGSLRLSCAASGLTIGSNVMGWYRQAPGKERELVAAISQSGGRTYYADSVKGRFTISRDNAKNTVYLQMNSLKQEDTAVYYCAKRLRSFYGRPMGDYWGQGTQVTVSS | high polyreactivity |
| QVQLVESGGGLVQAGGSLRLSCAASGRTFHTYAIGWYRQAPGKERELVAAITRRGGSTYYADSVKGRFTISRDNAKNTVYLQMNSLKPEDTAVYYSAAPWYGYWGQGTQVTVSS | high polyreactivity |
| QVQLVESGGGLVQAGGSLRLSCAASGFTFRYNTMGWYRQAPGKERELVAAISSSGGRTYYADSVKGRFTISRDNAKNTVYLQMNSLKPEDTAVYYCNAVTRESGGFDYWGQGTQVTVSS | high polyreactivity |
| QVQLVESGGGLVHAGGILRLSCAASGRTFRYYTMGWYRQEPGKERELVAAISSGGGNTYYADSVKGRFTISRDNAKNTVYLQMNSLKPEDTAVYYCAVPWYTRESGAYDYWGQGSQVTVSS | high polyreactivity |
| QVQLVESGGGLVQAVGSLRLSCAASGTFARYAMGWYRQGPGKERELVAAISSRGGSTYYADSVKGRFTISRDNAENTVYLQMNSLKPEDTAVYYCAAAHQYYPEYYYWGQGTQVTVSS | high polyreactivity |
| QVQLVESGGGLVQAGGSLRLSCAASGSTFTWNTMGWYRQAPGKEREMVAAISMRGANTYADSVKGRFTISLDNAKNTVYLEMNSLKPEDTAVYYCARDRLAIMDYNEYITRYEYWGQGTQVTVSS | low polyreactivity |
